Reference: the supplement of paper PMC7877785
± gives the uncertainty stated by the source.

Assay: self-splicing fitness, log relative to wild type (ln ratio); higher = more splicing; Tetrahymena group I intron in knt gene, E. coli kanamycin selection, DiMSum; sequences stand for … in CUCUCU…GGAGGGAAAAGUUAUCAGGCAUGCACCUGGUAGCUAGUCUUUAAACCAAUAGAUUGCAUCGGUUUAAAAGGCAAGACCGUCAAAUUGCGGGAAAGGGGUCAACAGCCGUUCAGUACCAAGUCUCAGGGGAAACUUUGAGAUGGCCUUGCAAAGGGUAUGGUAAUAAGCUGACGGACAUGGUCCUAACCACGCAGCCAAGUCCUAAGUCAACAGAUCUUCUGUUGAUAUGGAUGCAGUUCACAGACUAAAUGUCGGUCGGGGAAGAUGUAUUCUUCUCAUAAGAUAUAGUCGGACCUCUCCUUAAUGGGAGCUAGCGGAUGAAGUGAUGCAACACUGGAGCCGCUGGGAACUAAUUUGUAUGCGAAAGUAUAUUGAUUAGUUUUGGAGUACUCGUGGUCG
How it was run: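 Pooled colonies went to amplicon sequencing on an Illumina HiSeq 2500 after six replicate transformations. The plates were LB agar with 100 μg/mL carbenicillin, 50 μM IPTG and 0.2% rhamnose, with or without 25 μg/mL kanamycin, incubated overnight at 37°C or 30°C. The E. coli BL21(DE3) library had all eight P1ex-region intron nucleotides randomised, the intron placed in the knt kanamycin-resistance gene on pET-22b(+). DiMSum fitness is the error-weighted combination of replicate fold changes, kanamycin against none, normalised to wild type.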

GCUUAGCAAUAUUACGCGUU
self-splicing fitness (ln) (30 °C): -0.427 ± 0.096
self-splicing fitness (ln) (37 °C): 0.0522 ± 0.1

GCUUAGCAAUAUUACGGACA
self-splicing fitness (ln) (30 °C): -0.409 ± 0.13
self-splicing fitness (ln) (37 °C): -1.15 ± 0.13

GCUUAGCAAUAUUACGGAGU
self-splicing fitness (ln) (30 °C): -2.9 ± 0.26
self-splicing fitness (ln) (37 °C): -0.418 ± 0.19

GCUUAGCAAUAUUACGGGCU
self-splicing fitness (ln) (30 °C): -2.79 ± 0.21
self-splicing fitness (ln) (37 °C): -3.26 ± 0.23

GCUUAGCAAUAUUACGGGUU
self-splicing fitness (ln) (30 °C): -1.95 ± 0.094
self-splicing fitness (ln) (37 °C): -1.43 ± 0.14

GCUUAGCAAUAUUACGGUUA
self-splicing fitness (ln) (30 °C): -0.517 ± 0.11
self-splicing fitness (ln) (37 °C): -0.548 ± 0.11

GCUUAGCAAUAUUACGUCAA
self-splicing fitness (ln) (30 °C): -2.67 ± 0.26
self-splicing fitness (ln) (37 °C): -1.66 ± 0.2

GCUUAGCAAUAUUACGUGAA
self-splicing fitness (ln) (30 °C): -0.117 ± 0.064
self-splicing fitness (ln) (37 °C): 0.311 ± 0.074

GCUUAGCAAUAUUACGUGCU
self-splicing fitness (ln) (30 °C): -2.78 ± 0.19
self-splicing fitness (ln) (37 °C): -1.41 ± 0.18

GCUUAGCAAUAUUACGUGUG
self-splicing fitness (ln) (30 °C): -1.91 ± 0.054
self-splicing fitness (ln) (37 °C): -1.14 ± 0.066

GCUUAGCAAUAUUACGUUUA
self-splicing fitness (ln) (30 °C): -1.73 ± 0.13
self-splicing fitness (ln) (37 °C): -1.17 ± 0.12

GGAAAGCAAUAUUACGACUA
self-splicing fitness (ln) (30 °C): -0.62 ± 0.12
self-splicing fitness (ln) (37 °C): -0.129 ± 0.12

GGAAAGCAAUAUUACGACUC
self-splicing fitness (ln) (30 °C): 0.0221 ± 0.11
self-splicing fitness (ln) (37 °C): -0.214 ± 0.19

GGAAAGCAAUAUUACGAUCU
self-splicing fitness (ln) (30 °C): -3.9 ± 0.42
self-splicing fitness (ln) (37 °C): -1.68 ± 0.32

GGAAAGCAAUAUUACGAUGA
self-splicing fitness (ln) (30 °C): -1.68 ± 0.2
self-splicing fitness (ln) (37 °C): -0.498 ± 0.2

GGAAAGCAAUAUUACGAUUC
self-splicing fitness (ln) (30 °C): -1.84 ± 0.16
self-splicing fitness (ln) (37 °C): -0.276 ± 0.16

GGAAAGCAAUAUUACGCAAC
self-splicing fitness (ln) (30 °C): -3.25 ± 0.24
self-splicing fitness (ln) (37 °C): -1.02 ± 0.23

GGAAAGCAAUAUUACGCCAA
self-splicing fitness (ln) (30 °C): -2.36 ± 0.41
self-splicing fitness (ln) (37 °C): -0.527 ± 0.29

GGAAAGCAAUAUUACGCCGC
self-splicing fitness (ln) (30 °C): -2.48 ± 0.41
self-splicing fitness (ln) (37 °C): -1.89 ± 0.49

GGAAAGCAAUAUUACGCUAC
self-splicing fitness (ln) (30 °C): -1.91 ± 0.26
self-splicing fitness (ln) (37 °C): -1.86 ± 0.33

GGAAAGCAAUAUUACGGACA
self-splicing fitness (ln) (30 °C): -0.913 ± 0.092
self-splicing fitness (ln) (37 °C): 0.104 ± 0.097

GGAAAGCAAUAUUACGGAGU
self-splicing fitness (ln) (30 °C): -3.76 ± 0.23
self-splicing fitness (ln) (37 °C): -1.73 ± 0.18

GGAAAGCAAUAUUACGGCAA
self-splicing fitness (ln) (30 °C): -0.443 ± 0.12
self-splicing fitness (ln) (37 °C): -0.141 ± 0.11

GGAAAGCAAUAUUACGGCGG
self-splicing fitness (ln) (30 °C): -2.47 ± 0.19
self-splicing fitness (ln) (37 °C): -1.45 ± 0.2

GGAAAGCAAUAUUACGGCGU
self-splicing fitness (ln) (30 °C): -0.39 ± 0.071
self-splicing fitness (ln) (37 °C): -0.31 ± 0.1

GGAAAGCAAUAUUACGGUGU
self-splicing fitness (ln) (30 °C): -2.29 ± 0.092
self-splicing fitness (ln) (37 °C): -1.15 ± 0.12

GGAAAGCAAUAUUACGUAGG
self-splicing fitness (ln) (30 °C): -3.23 ± 0.12
self-splicing fitness (ln) (37 °C): -2.23 ± 0.14

GGAAAGCAAUAUUACGUAUA
self-splicing fitness (ln) (30 °C): -2.2 ± 0.16
self-splicing fitness (ln) (37 °C): -1.16 ± 0.18

GGAAAGCAAUAUUACGUGCC
self-splicing fitness (ln) (30 °C): -1.94 ± 0.19
self-splicing fitness (ln) (37 °C): -2.01 ± 0.25

GGAAAGCAAUAUUACGUGGU
self-splicing fitness (ln) (30 °C): -3.11 ± 0.18
self-splicing fitness (ln) (37 °C): -1.9 ± 0.16

GGACAGCAAUAUUACGAAAG
self-splicing fitness (ln) (30 °C): -3.73 ± 0.33
self-splicing fitness (ln) (37 °C): -2.88 ± 0.43

GGACAGCAAUAUUACGAACC
self-splicing fitness (ln) (30 °C): -1.23 ± 0.27
self-splicing fitness (ln) (37 °C): -0.895 ± 0.23

GGACAGCAAUAUUACGAACU
self-splicing fitness (ln) (30 °C): -0.198 ± 0.08
self-splicing fitness (ln) (37 °C): 0.442 ± 0.083

GGACAGCAAUAUUACGAUAA
self-splicing fitness (ln) (30 °C): -1.81 ± 0.073
self-splicing fitness (ln) (37 °C): -0.876 ± 0.08

GGACAGCAAUAUUACGCAGC
self-splicing fitness (ln) (30 °C): -1.1 ± 0.083
self-splicing fitness (ln) (37 °C): -0.558 ± 0.085

GGACAGCAAUAUUACGCAGU
self-splicing fitness (ln) (30 °C): -4.28 ± 0.36
self-splicing fitness (ln) (37 °C): -1.5 ± 0.24

GGACAGCAAUAUUACGCCCA
self-splicing fitness (ln) (30 °C): -0.886 ± 0.45
self-splicing fitness (ln) (37 °C): -0.212 ± 0.36

GGACAGCAAUAUUACGCCUU
self-splicing fitness (ln) (30 °C): -0.676 ± 0.057
self-splicing fitness (ln) (37 °C): -0.194 ± 0.069
